The values below come from article PMC5457487, “Structural Basis for Mitotic Centrosome Assembly in Flies” (Cell, 2017).

By stoichiometry N is commonly meant a count of units in the complex or per binding partner.

First the molecules themselves.
B1: Cnn LZ (GPM-D490-L552) (domain or fragment, Drosophila melanogaster)
chain: GPMDQQNSAVIGQLRLELQQARTEVETADKWRLECVDVCSVLTNRLEELAGFLNSLLKHKDVLGVL
notes: source: E. coli, purified as complex with CM2; not shown: His6, N-terminal, cleaved; MBP, N-terminal, cleaved
B2: MBP-PReM (domain or fragment, Drosophila melanogaster, UniProt P54623-2 403-608, looked up)
chain: QLQTEVKKKTANLQNLVNKELWEKNREVERLTKLLANQQKTLPQISEESAGEADLQQSFTEAEYMRALERNKLLQRKVDVLFQRLADDQQNSAVIGQLRLELQQARTEVETADKWRLECVDVCSVLTNRLEELAGFLNSLLKHKDVLGVLAADRRNAMRKAVDRSLDLSKSLNMTLNITATSLADQSLAQLCNLSEILYTEGDASH
notes: Centrosomin (Cnn), Drosophila, phospho-regulated multimerization (PReM) domain, aa403-608; also called MBP-PReM fusion; Cnn-PReM (aa403-608); source: E. coli B834 (DE3), purified (Ni-NTA, SEC); not shown: MBP, N-terminal, kept
B3: Cnn CM2 WT (GGS-H1082-L1148) (domain or fragment, Drosophila melanogaster)
chain: GGSHDCAKVDLENAELRRKLIRTKRAFEDTYEKLRMANKAKAQVEKDIKNQILKTHNVLRNVRSNMENEL
notes: GGS motif left at the N terminus after TEV cleavage; Centrosomin (Cnn), Drosophila, CM2 domain, aa1082-1148; The dimer holds a Zn2+ ion coordinated by H1082 and C1084; also called Cnn-motif 2 domain; Cnn_(1082-1148); source: E. coli C41 (DE3), purified (Ni-NTA, TEV cleavage, SEC); not shown: His-tagged lipoyl domain (Bacillus stearothermophilus dihydrolipoamide acetyltransferase), N-terminal, …
B4: CM2-L1137E (domain or fragment, Drosophila melanogaster)
chain: B3 chain with L59E
notes: GGS motif left after TEV cleavage, as told for the WT CM2 construct of the same vector; Centrosomin (Cnn), Drosophila, CM2 domain, aa1082-1148, L1137E; also called CM2 (aa1082-1148 L1137E); source: E. coli C41 (DE3), purified; not shown: His-tagged lipoyl domain (Bacillus stearothermophilus dihydrolipoamide acetyltransferase), N-terminal, cleaved
B5: CM2-T1133E (domain or fragment, Drosophila melanogaster)
chain: B3 chain with T55E
notes: GGS motif left after TEV cleavage, as told for the WT CM2 construct of the same vector; Centrosomin (Cnn), Drosophila, CM2 domain, aa1082-1148, T1133E; also called CM2 (aa1082-1148 T1133E); source: E. coli C41 (DE3), purified; not shown: His-tagged lipoyl domain (Bacillus stearothermophilus dihydrolipoamide acetyltransferase), N-terminal, cleaved
B6: CM2-I1126E (domain or fragment, Drosophila melanogaster)
chain: B3 chain with I48E
notes: GGS motif left after TEV cleavage, as told for the WT CM2 construct of the same vector; Centrosomin (Cnn), Drosophila, CM2 domain, aa1082-1148, I1126E; also called CM2 (aa1082-1148 I1126E); source: E. coli C41 (DE3), purified; not shown: His-tagged lipoyl domain (Bacillus stearothermophilus dihydrolipoamide acetyltransferase), N-terminal, cleaved
B7: Cnn LZ WT (GPM-D490-K544) (domain or fragment, Drosophila melanogaster)
chain: GPMDQQNSAVIGQLRLELQQARTEVETADKWRLECVDVCSVLTNRLEELAGFLNSLLK
notes: Centrosomin (Cnn), Drosophila, LZ domain, aa490-544; Homo-tetramer alone in solution; a parallel homo-dimer in the 2:2 complex with CM2; also called LZ domain; leucine zipper; source: E. coli B834 (DE3), purified (Ni-NTA, SEC; tag cleaved with GST-3C protease, reverse Ni-NTA, SEC); not shown: His6, N-terminal, cleaved; MBP, N-terminal, cleaved
B8: LZ-L535E (domain or fragment, Drosophila melanogaster)
chain: B7 chain with L49E
notes: N-terminal residues as printed for the WT LZ construct of the same vector; Centrosomin (Cnn), Drosophila, LZ domain, aa490-544, L535E; also called LZ (aa490-544 L535E); Cnn_(490-544) L535E; source: E. coli B834 (DE3), purified; not shown: His6, N-terminal, cleaved; MBP, N-terminal, cleaved

Series [1] concerns the target B3. The experiment in a line: crystal structure; LZ:CM2 complexes of various LZ lengths and LZ-L535E:CM2; sitting drops, 21°C. The conditions noted are these: both partners purified.
Series [2] deals with the molecule itself. Put plainly: SEC-MALS; Superose 6 column; MBP-PReM apo or with addition of CM2 WT or point mutants; 50 mM Tris-HCl pH7.5, 150 mM NaCl, 10 μM ZnCl2, 5 mM β-mercaptoethanol.
Series [3] deals with the molecule itself. Put plainly: SEC-MALS; S75 10/300 column; 50 mM Tris-HCl pH7.5, 150 mM NaCl, 10 μM ZnCl2, 5 mM β-mercaptoethanol; proteins alone or mixed. (In general: In gel filtration, larger molecules generally elute earlier.)
Series [4] has as its target B3. Described as above. The conditions noted are these: both partners purified.

Where a chain is given by its changes, count along the chain named. Names may count otherwise.

For B1, the binding result in series [1] is recorded as “binds”. As to B2, the “stoichiometry N” value in series [2] amounted to 2. Take B3: the “stoichiometry N” value in series [3] was determined as 2. B4: in series [3], the “stoichiometry N” value was 2. For B5, the “stoichiometry N” value in series [3] was determined as 2. On to B6, for which the “stoichiometry N” value in series [3] was 2.

Consider B7, for which the “stoichiometry N” value in series [3] is 4; in series [4] it was 1 LZ per CM2 (printed as 2:2). Turning to B8, the “stoichiometry N” value in series [4] is 1 LZ per CM2 (printed as 2:2).
